{
  "source": "patent US9200040B2",
  "about": "“Specific binding agents of human angiopoietin-2” (Amgen Inc., priority 2001, dated 2015)",
  "key": {"[1]": {"test_system": "A431 tumor", "conditions": "p<0.0001", "method": "The doses of peptibody used were 1000, 200, 40 and 8 ug/mouse/day. A total of 20 doses was given to all animals. Tumor volumes and body weights were recorded three times/week. At the end of the study, animals were sacrificed, and their sera were collected for measuring peptibody levels by ELISA. Tumors and a panel of normal tissues were collected from all groups.\nFemale nude mice were injected subcutaneously with 1×10^7 A431 cells on study day 0."}, "[2]": {"test_system": "VEGF-induced angiogenesis", "assay": "Corneal angiogenesis model", "format": "in vivo", "procedure": "Ang-2 peptibody CON4(C) was evaluated in the corneal model of angiogenesis in rats. Angiogenesis was induced by implanting a VEGF- (or BSA control) soaked nylon disc into the corneal stroma (n=8/group). Peptibody TN8CON4-C was administered by sub-cutaneous injection at 1.0 or 0.1 mg/rat/day for seven days. Two other groups of animals were treated with the same dose of negative control peptibody 4883. All groups were pre-treated with a single loading dose of either 3.0 or 0.3 mg that was three times the maintenance dose of 1.0 or 0.1 mg (see figure). After seven days of treatment, two vascular endpoints were determined from each digital image of the rat cornea: the number of vessels intersecting the mid-point between the disc and the limbus, and the blood vessel area."}, "[3]": {"target": "T1, huAng2 (Homo sapiens, UniProt O15123)", "T1 construct": "purchased R&D Systems BNO12103A", "T1 sequence (O15123 68-496 limits assumed)": "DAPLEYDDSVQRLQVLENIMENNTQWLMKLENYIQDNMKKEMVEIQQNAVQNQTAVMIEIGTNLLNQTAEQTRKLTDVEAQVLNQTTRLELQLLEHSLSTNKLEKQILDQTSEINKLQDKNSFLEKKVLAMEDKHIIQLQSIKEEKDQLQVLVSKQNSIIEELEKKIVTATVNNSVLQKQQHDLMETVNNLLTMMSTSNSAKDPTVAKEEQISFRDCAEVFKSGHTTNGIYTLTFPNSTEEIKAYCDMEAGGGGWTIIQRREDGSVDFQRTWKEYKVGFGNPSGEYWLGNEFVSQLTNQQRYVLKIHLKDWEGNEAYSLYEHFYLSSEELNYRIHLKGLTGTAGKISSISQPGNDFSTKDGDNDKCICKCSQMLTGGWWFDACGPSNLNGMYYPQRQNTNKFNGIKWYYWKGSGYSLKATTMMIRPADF", "assay": "BIAcore binding to huAng2 (Example 9)", "conditions": "Table 8", "procedure": "Six samples of anti-Ang2 peptibodies were tested for their binding activity to huAng2 (R&D Systems, BNO12103A) on BIAcore. Protein G was immobilized to a CM5 chip according to the standard amine-coupling protocol (BIAcore Inc.), and the peptibodies were then injected over a protein G surface for capturing (RL˜100 Ru). To test binding between hAng2 and the captured peptibody, 0.3 nM to 40 nM of huAng2 was injected over the captured peptibody surfaces, and binding sensorgrams were analyzed using BIAevaluation 3.0 (BIAcore Inc.)."}, "[4]": {"target": "T2, hAng-1 (Homo sapiens, UniProt Q15389)", "T2 sequence (Q15389 16-498)": "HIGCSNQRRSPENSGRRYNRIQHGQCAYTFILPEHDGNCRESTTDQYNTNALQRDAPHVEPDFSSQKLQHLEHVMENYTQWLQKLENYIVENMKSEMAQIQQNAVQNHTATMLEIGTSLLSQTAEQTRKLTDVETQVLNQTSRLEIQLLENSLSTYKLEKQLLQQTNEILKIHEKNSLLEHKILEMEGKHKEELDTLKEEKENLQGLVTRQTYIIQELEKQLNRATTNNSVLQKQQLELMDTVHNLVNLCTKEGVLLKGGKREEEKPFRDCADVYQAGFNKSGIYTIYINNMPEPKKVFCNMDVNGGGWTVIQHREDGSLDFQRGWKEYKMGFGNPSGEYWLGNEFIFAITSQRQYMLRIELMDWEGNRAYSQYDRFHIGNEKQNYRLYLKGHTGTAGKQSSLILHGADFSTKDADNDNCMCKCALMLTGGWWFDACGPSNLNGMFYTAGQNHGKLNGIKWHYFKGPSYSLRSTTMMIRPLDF", "assay": "Neutralization ELISA (Example 2)", "format": "binding", "conditions": "Table 5; about 1 nM Tie-2-Fc"}, "[5]": {"target": "T3, mAng-2 (Mus musculus, UniProt O35608)", "T3 construct": "made in house", "T3 sequence (O35608 19-496)": "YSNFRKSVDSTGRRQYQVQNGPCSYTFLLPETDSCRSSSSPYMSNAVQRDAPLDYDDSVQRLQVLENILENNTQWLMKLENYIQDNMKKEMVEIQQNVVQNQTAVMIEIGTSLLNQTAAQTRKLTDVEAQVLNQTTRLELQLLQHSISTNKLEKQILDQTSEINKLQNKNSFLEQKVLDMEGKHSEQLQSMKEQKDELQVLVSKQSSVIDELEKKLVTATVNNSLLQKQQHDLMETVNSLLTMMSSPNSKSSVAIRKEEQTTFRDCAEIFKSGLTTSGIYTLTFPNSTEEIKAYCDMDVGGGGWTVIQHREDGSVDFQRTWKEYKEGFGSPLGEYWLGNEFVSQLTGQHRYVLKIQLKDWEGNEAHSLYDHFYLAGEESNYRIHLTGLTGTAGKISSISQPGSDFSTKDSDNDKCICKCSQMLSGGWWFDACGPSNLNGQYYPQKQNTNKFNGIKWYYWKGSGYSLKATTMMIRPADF", "assay": "Affinity BIAcore (Example 2)", "format": "binding, murine", "conditions": "Table 6", "procedure": "(§1) Binding assays were carried out by first capturing about 100 Ru of each candidate anti-Ang-2 peptibody to the immobilized Protein G, after which various concentrations (0-100 nM) of huAng-2 or mAng-2 were injected over the bound antibody surface at a flow rate of 50 μl/min for 3 minutes. Peptibody binding kinetic parameters including ka (association rate constant), kd (dissociation rate constant) and KD (dissociation equilibrium constant) were determined using the BIA evaluation 3.1 computer program (Biacore, Inc.). Lower dissociation equilibrium constants indicated greater affinity of the peptibody for Ang-2."}, "[6]": {"target": "T2, hAng-1", "assay": "Affinity ELISA", "format": "binding", "conditions": "Table 5"}, "[7]": {"target": "T4, hAng-2 (Homo sapiens, UniProt O15123)", "T4 construct": "conditioned media of human 293T cells transfected with full length human Ang-2 DNA; made in house; host or cells: conditioned media", "T4 sequence (O15123 19-496)": "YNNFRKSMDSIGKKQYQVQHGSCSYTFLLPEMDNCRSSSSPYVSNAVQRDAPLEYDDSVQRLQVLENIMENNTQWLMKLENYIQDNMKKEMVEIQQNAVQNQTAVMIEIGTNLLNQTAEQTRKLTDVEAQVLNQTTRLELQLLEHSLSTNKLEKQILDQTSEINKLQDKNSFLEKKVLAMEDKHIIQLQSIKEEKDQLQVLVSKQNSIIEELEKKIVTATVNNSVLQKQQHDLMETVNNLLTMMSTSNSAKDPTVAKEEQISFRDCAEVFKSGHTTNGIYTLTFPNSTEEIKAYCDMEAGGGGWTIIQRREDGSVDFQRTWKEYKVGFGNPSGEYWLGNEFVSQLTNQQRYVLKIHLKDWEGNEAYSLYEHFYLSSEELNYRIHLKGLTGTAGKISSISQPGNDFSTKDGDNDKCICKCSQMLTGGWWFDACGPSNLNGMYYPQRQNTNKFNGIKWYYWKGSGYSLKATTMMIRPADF", "assay": "Affinity BIAcore (Example 2)", "format": "binding", "conditions": "Table 6", "procedure": "as §1"}, "[8]": {"test_system": "Colo-205 tumor", "procedure": "Female nude mice were injected subcutaneously with 2×10^6 Colo-205 cells plus Matrigel (2:1) on study day 0. At day 3, the Ang-2 peptibodies L1-7-N, L1-21-N, Con4-C, and 2×Con4-C were administered subcutaneously at the dose of […], twice a week.\nFemale nude mice were injected subcutaneously with 2×10^6 Colo-205 cells plus Matrigel (2:1) on study day 0.\nFemale nude mice were injected subcutaneously with 2×10^6 Colo-205 cells plus Matrigel (2:1) on study day 0. At day 3, Ang-2 peptibody 2×Con4-C or control peptibody were administered subcutaneously at the dose of 350 μg/day. Tumors from groups treated with control peptibody (as described in Table 5) were harvested either at Day 14 (size-matched control) or Day 18 (time-matched control). Tumors from 2×Con4(C) treated group were then harvested at Day 18. Tumor volumes were recorded at regular intervals, as shown.\nFemale nude mice were injected subcutaneously with 2×10^6 Colo-205 cells plus Matrigel (2:1) on study day 0. Treatment with 350 μg/mouse, s.c. twice a week, of the Ang-2 peptibody 2×Con4-C, or equivalent control peptibody started either at study day 3, 10 or 15. […] The results are set forth in FIG. 8 (body weights not shown).\nFemale nude mice were injected subcutaneously with 2×10^6 Colo-205 cells plus Matrigel (2:1) on study day 0. At study day 14, treatments were started with a) 350 μg/mouse, s.c. twice a week, of the Ang-2 peptibody 2×Con4-C, b) 20 mg/kg qwx3 i.p. of taxotere, or c) a combination of both.\nFemale nude mice were injected subcutaneously with 2×10^6 Colo-205 cells plus Matrigel (2:1) on study day 0. At study day 14 started treatments with a) 350 μg/mouse, s.c. twice a week, of the Ang-2 peptibody 2×Con4-C, b) 50 mg/kg qdx5 i.p. of 5-FU, or c) a combination of both."}},
  "note": "“Also recorded” adds a separate entry of the source. Read-outs that look alike come from different tables or passages of the source. Primed or numbered codes have the meaning given here. Where no end group is shown, it is not given here. [ ]: non-standard residue; d: D form. Fc(5) = non-antigen-binding fragment of an antibody (vehicle) fused to the peptide",
  "data": [
    {"molecule": "M-Fc-GGGGGAQQEECEWDPWTCEHMLE (M[Fc]GGGGGAQQEECEWDPWTCEHMLE; cysteine pairing not given here) [Con4 (C)]", "values": [
      {"measurement": "tumor growth vs. vehicle control", "setting": "[1]; s.c. once per day, 1000, 200, 40 and 8 ug/mouse/day, 20 doses", "value": "inhibited tumor growth"},
      {"measurement": "overt toxicity based on body weights", "setting": "[2]; 1.0 or 0.1 mg/rat/day s.c. for seven days", "value": "no evidence of overt toxicity"},
      {"measurement": "VEGF-induced angiogenesis (number of vessels, blood vessel area)", "setting": "[2]; s.c. 1.0 or 0.1 mg/rat/day for seven days after loading dose 3.0 or 0.3 mg, p<0.04", "value": "significantly inhibited VEGF-induced angiogenesis in a dose-dependent manner"},
      {"measurement": "ka", "setting": "[3]", "value": 530000, "unit": "M⁻¹ s⁻¹"},
      {"measurement": "kd", "setting": "[3]", "value": 0.0002, "unit": "s⁻¹"}
    ]},
    {"molecule": "MGAQQEECEWDPWTCEHMLEGGGGG-Fc (MGAQQEECEWDPWTCEHMLEGGGGG-{Fc(5)}; not fully specified (bridges); printed as MGAQQEECEWDPWTCEHMLEGGGGG-Fc; cysteine pairing not given here) [Con4 (N)]", "values": [
      {"measurement": "hAng-1 IC 50", "setting": "[4]", "value": "No In-"},
      {"measurement": "mAng-2 ka", "setting": "[5]", "value": 730000, "unit": "M⁻¹ s⁻¹"},
      {"measurement": "mAng-2 kd", "setting": "[5]", "value": 0.00044, "unit": "s⁻¹"},
      {"measurement": "hAng-1 EC 50", "setting": "[6]", "value": "No"},
      {"measurement": "hAng-2 ka", "setting": "[7]", "value": 330000, "unit": "M⁻¹ s⁻¹"},
      {"measurement": "hAng-2 kd", "setting": "[7]", "value": 0.00022, "unit": "s⁻¹"}
    ]},
    {"molecule": "M-Fc-GGGGGAQQEECEWDPWTCEHMGSGSATGGSGSTASSGSGSATHQEECEWDPWTCEHMLE (protein) M[Fc]GGGGGAQQEECEWDPWTCEHMGSGSATGGSGSTASSGSGSATHQEECEWDPWTCEHMLE", "values": [
      {"measurement": "tumor growth vs. vehicle control and control peptibody", "setting": "[1]; 200 μg/mouse/day s.c. from day 3", "value": "Significant differences in tumor growth"},
      {"measurement": "ka", "setting": "[3]", "value": 480000, "unit": "M⁻¹ s⁻¹"},
      {"measurement": "kd", "setting": "[3]", "value": 0.00016, "unit": "s⁻¹"},
      {"measurement": "body weights", "setting": "[8]; Example 15", "value": "no significant effect on body weights"},
      {"measurement": "tumor growth vs. vehicle control and control peptibody", "setting": "[8]; Example 15: s.c. 14, 2.8 and 0.56 μg/mouse twice a week, p=0.003 intermediate dose, p<0.0001 high dose", "value": "Significant differences in tumor growth were observed between the two higher doses"},
      {"measurement": "body weight", "setting": "[8]; Example 16", "value": "no significant effect on body weight"},
      {"measurement": "tumor growth vs. time-matched control group", "setting": "[8]; Example 16: s.c. 350 μg/day from day 3, harvested Day 18, p=0.0154", "value": "Significant differences in tumor growth"},
      {"measurement": "body weights", "setting": "[8]; Example 17", "value": "no significant effect on body weights"},
      {"measurement": "tumor growth vs. vehicle control", "setting": "[8]; Example 17: 350 μg/mouse s.c. twice a week started at study day 3, 10 or 15, p=0.089 day 15 group, p<0.0001 day 3 and 10 groups, listed as 2×Con4-C", "value": "capable of inhibiting Colo205 tumor growth irrespective of when dosing begins; also recorded: Significant differences in tumor growth"},
      {"measurement": "body weights", "setting": "[8]; Example 19a", "value": "no significant effect on body weights"},
      {"measurement": "tumor growth vs. vehicle control", "setting": "[8]; Example 19a, from study day 14: 2×Con4-C 350 μg/mouse s.c. twice a week, taxotere 20 mg/kg qwx3 i.p., or both, p<0.0001", "value": "Significant differences in tumor growth"},
      {"measurement": "tumor growth vs. vehicle control", "setting": "[8]; Example 19b, from study day 14: 2×Con4-C 350 μg/mouse s.c. twice a week, 5-FU 50 mg/kg qdx5 i.p., or both, p<0.0001", "value": "Significant differences in tumor growth"}
    ]}
  ]
}
